Earlier results, collected in paper PMC8689690.

Target: IL-28R1 (Homo sapiens) (UniProt Q8IU57)
Assay: ELISA

Sequence of UniProt Q8IU57 (Q8IU57 21-228): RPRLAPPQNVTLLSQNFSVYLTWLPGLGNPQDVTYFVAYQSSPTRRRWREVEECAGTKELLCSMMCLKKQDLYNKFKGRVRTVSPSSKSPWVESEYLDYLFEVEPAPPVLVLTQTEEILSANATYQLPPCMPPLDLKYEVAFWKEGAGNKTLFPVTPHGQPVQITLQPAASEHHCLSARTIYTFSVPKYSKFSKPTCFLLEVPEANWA

In the case of IFNL1 (from UniProt Q8IU54), the Kd is given as 15 nM.

For IFNL3 (from UniProt Q8IZI9), the Kd is given as 65 nM.
